Experiments:
Test in all cases: cell-based or functional assay
[1] = target: GFRα1-RET receptor complex (cells transfected with GFRα1 and expressing RET)
[2] = target: GFRα2-RET receptor complex (cells transfected with GFRα2 and expressing RET)
[3] = target: GFRα3-RET receptor complex (cells transfected with GFRα3 and expressing RET)

With “GPG-F2c (GDNF homologue-scanning mutant, region F2c replaced by persephin sequence) (ligand)” the GFRα1-RET reporter activation relative to GDNF (% of full-length GDNF) [1] was < 60.

“GPG-Ha (GDNF homologue-scanning mutant, region Ha replaced by persephin sequence) (ligand)” gave a GFRα1-RET reporter activation (FIG. 4, percentage of reporter activation by GDNF) [1] of 80% and a GFRα2-RET reporter activation (FIG. 4, percentage of reporter activation by GDNF) [2] of 27%.

Work on “PAP-Ha/F2ac (persephin with regions Ha, F2a and F2c from artemin) (ligand)” yielded a GFRα3-RET reporter activation relative to artemin (% of full length artemin) [3] of 70 to 80.

In the case of “PNP-F2ac (His-Flag-PNP-F2ac, from mouse sequences) (ligand)”, the GFRα2-RET reporter activation relative to GDNF [2] is reported as < 30 % of GDNF.

For “PNP-Ha/F2ac (persephin with regions Ha, F2a and F2c from neurturin) (ligand)”, the GFRα2-RET reporter activation relative to GDNF [2] was 70 to 80 % of GDNF.
